Measurements taken from patent US20130280279A1, “PHARMACEUTICAL COMPOSITION OF A COMPLEX OF AN ANTI-DIG ANTIBODY AND DIGOXIGENIN THAT IS CONJUGATED TO A PEPTIDE” (HOFFMANN-LA ROCHE INC., priority 2011, published 2013).

Target: human NPY2 receptor on HEK293/hNPY2R cells (human) (UniProt P49146)
Assay: cell-based or functional assay

IC50 value of the cAMP assay (inhibition of Forskolin stimulated cAMP accumulation in HEK293/hNPY2R cells): 0.012 nM
Substance: PYY(3-36) (peptide)
